T1: human CD30L expressed on cells (human, UniProt P32971 1-234)
T1 construct: also called huCD30L; B16-huCD30L
T1 sequence: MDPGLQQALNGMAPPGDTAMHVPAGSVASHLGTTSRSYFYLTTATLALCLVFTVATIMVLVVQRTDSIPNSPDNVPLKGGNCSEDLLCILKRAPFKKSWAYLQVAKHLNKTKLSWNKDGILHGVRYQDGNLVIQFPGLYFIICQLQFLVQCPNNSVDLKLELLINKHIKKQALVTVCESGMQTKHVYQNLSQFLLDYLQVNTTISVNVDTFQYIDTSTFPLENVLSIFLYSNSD

T2: cynomolgus CD30L expressed on cells (cynomolgus, UniProt A0A7N9CVX7 1-234)
T2 construct: whole, on cells; also called cyCD30L; HEK293-cyCD30L
T2 sequence: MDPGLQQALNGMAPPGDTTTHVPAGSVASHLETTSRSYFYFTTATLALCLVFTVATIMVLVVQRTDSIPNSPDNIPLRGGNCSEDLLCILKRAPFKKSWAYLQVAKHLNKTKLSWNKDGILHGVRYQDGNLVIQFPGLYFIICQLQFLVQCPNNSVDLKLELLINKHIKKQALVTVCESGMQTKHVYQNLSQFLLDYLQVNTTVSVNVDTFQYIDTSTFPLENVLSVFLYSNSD

T3: CDH13 (human, UniProt P55290 139-693)
T3 construct: whole, on cells; also called hit #16
T3 sequence (looked up): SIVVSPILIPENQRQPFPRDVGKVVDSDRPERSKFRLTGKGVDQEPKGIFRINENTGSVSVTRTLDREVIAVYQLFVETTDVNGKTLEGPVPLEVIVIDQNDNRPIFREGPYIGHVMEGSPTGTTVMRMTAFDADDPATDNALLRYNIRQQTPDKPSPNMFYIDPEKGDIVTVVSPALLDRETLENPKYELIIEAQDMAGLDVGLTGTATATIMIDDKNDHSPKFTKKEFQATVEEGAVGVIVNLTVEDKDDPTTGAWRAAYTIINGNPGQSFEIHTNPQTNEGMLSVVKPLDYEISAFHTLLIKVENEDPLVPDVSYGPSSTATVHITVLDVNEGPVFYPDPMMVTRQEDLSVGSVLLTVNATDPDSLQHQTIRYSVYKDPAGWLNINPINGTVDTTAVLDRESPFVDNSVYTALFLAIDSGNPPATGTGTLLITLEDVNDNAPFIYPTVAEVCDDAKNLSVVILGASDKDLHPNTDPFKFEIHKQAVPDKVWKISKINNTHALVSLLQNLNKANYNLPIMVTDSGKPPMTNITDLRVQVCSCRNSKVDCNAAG

T4: recombinant human CD30L protein (human, UniProt P32971 63-234)
T4 construct: also called rhCD30L; huCD30L (ELISA)
T4 sequence (looked up): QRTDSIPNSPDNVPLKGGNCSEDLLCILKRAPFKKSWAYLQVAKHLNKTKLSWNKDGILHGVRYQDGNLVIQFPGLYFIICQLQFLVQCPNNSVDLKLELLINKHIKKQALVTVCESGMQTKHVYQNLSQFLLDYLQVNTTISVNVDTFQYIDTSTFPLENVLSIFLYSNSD


Legend:
[1] = target: T1, human CD30L expressed on cells; assay: flow cytometry, blocking of CD30-Fc binding to human CD30L on cells; reference Ref1
[2] = target: T2, cynomolgus CD30L expressed on cells; assay: flow cytometry, blocking of CD30-Fc binding to cyno CD30L on cells; reference Ref1
[3] = target: T3, CDH13; assay: cell microarray, library and confirmation screens
[4] = target: T4, recombinant human CD30L protein; assay: KinExA, Fab, human CD30L; reference Fab of Ref1
Text: For each experiment, CD30L antigen is titrated in a background of the Fab and allowed to reach equilibrium. The solutions are then briefly exposed to the solid phase and a portion of free Fab is captured. The captured Fab is then labeled with a fluorescent secondary molecule. The short contact time with the solid phase is less than the time needed for dissociation of the pre-formed complex in solution, thus competition between the solution and the solid phase titrated binding partner is kinetically excluded.
The signals generated from the captured Fab, which are directly proportional to the concentration of free Fab in the equilibrated samples, are used to determine the KD value. The KinExA Pro software performs a least squares analysis on the measured data to fit optimal solution for the KD and the activity of the Fab to a curve representative of a 1:1 reversible bi-molecular interaction.

| Binder | fold better IC50 than reference 1 (ref1) anti-CD30L [1] | fold better IC50 than reference 1 (ref1) anti-CD30L [2] | binding result [3] | fold difference in KD against the reference 1 anti-CD30L [4] |
| --- | --- | --- | --- | --- |
| anti-CD30L antibody clone 2 germlined with IgG1 constant region SEQ ID NO: 502 (antibody, also called germlined clone 2; copies: 2 + 2) heavy: not shown VL: DIQMTQSPSSLSASVGDRVTITCRASQGISNHLAWFQQKPGKAPKSLIYAASSLQSGVPSRFSGSGSGTDFTLTISSLQPEDFATYYCQQYVTYPLTFGGGTKVEIK | 2.74 fold | 2.13 fold | no binding (tested: 5 µg/mL) |  |
| Fab of clone 2 germlined (Fab, V domains shown, Fab used in KinExA; also called Fab of a representative anti-CD30L, clone 2 germlined) VH: EVQLVESGGGLVQPGRSLRLSCAASGFNFDDYAMHWVRQAPGKGLEWVSGISWRSGNIGYADSVKGRFTISRDNAKNSLYLQMNSLRAEDTALYYCAKDKGIGFNWNYEGFDYWGQGTLVTVSS VL: DIQMTQSPSSLSASVGDRVTITCRASQGISNHLAWFQQKPGKAPKSLIYAASSLQSGVPSRFSGSGSGTDFTLTISSLQPEDFATYYCQQYVTYPLTFGGGTKVEIK |  |  |  | 4.2 fold |
